Measured values: patent publication US20240309070A1 (ADMARE THERAPEUTICS SOCIETY, published 2024)

Columns and labels:
[1] = target: T1, Western Reserve B5 on cells infected with VVddeGFP Western Reserve virus (Vaccinia virus, Western Reserve strain, UniProt Q01227 18-317); test: flow cytometry, HT29 cells infected with WR VV
T1 construct: also called VV B5; WR

[2] = target: T2, VV B5 monomer protein (Wyeth Vaccinia strain B5 with C-terminal AVI tag and HIS6 tag) (Vaccinia virus, Wyeth strain, UniProt O57254 18-279); test: BLI (Octet), antibody on AHC sensor, B5 monomer analyte
T2 construct: also called B5 protein; VV B5 protein

[3] = target: T1, Western Reserve B5 on cells infected …; test: flow cytometry, SKOV3 cells infected with WR VV
[4] = target: T3, Copenhagen B5 on cells infected with VVCopenhagen (YFP) virus (Vaccinia virus, Copenhagen strain, UniProt P21115 18-317); test: flow cytometry, HT29 cells infected with Copenhagen VV
T3 construct: also called VV B5

[5] = target: T2, VV B5 monomer protein (Wyeth Vaccinia …); test: ELISA, B5 monomer coated

B1: A048-H3L1 (antibody, V domains shown)
VH: EVQLLESGGGLVQPGGSLRLSCAASGFSFSSSYYMCWVRQAPGKGLEWIACIYTSSGSAYYADSVKGRFTISRDNSKNTLYLQMNSLRAEDTAVYYCVRNAVGSSYYLYLWGQGTLVTVSS
VL: DIQMTQSPSTLSASVGDRVTITCQASQSVAGNNYLSWYQQKPGKAPKLLIYSVSTLASGVPSRFSGSGSGTEFTLTISSLQPDDFATYYCQGYYNDGIWAFGQGTKVEIK
With B1 the EC50 [1] was 0.86 nM, the Kd [2] was 4.37 nM and the koff [2] was 0.000468 s⁻¹. The kon [2] was 107000 M⁻¹ s⁻¹, the EC50 [3] was 0.94 nM and the EC50 [4] was 0.89 nM. The EC50 [5] was 0.0854 nM.

B2: A048-H2L1 (antibody, V domains shown)
VH: EVQLLESGGGLVQPGGSLRLSCAASGFSFSSSYYMCWVRQAPGKGLEWIACIYTSSGSAYYANWAKGRFTISRTSSTTVTLQMNSLRAEDTAVYYCVRNAVGSSYYLYLWGQGTLVTVSS
VL: DIQMTQSPSTLSASVGDRVTITCQASQSVAGNNYLSWYQQKPGKAPKLLIYSVSTLASGVPSRFSGSGSGTEFTLTISSLQPDDFATYYCQGYYNDGIWAFGQGTKVEIK
B2 showed an EC50 [1] of 1.37 nM, a Kd [2] of 7.21 nM and a koff [2] of 0.000672 s⁻¹. The kon [2] was 93000 M⁻¹ s⁻¹, the EC50 [3] was 0.53 nM and the EC50 [4] was 1.48 nM. The EC50 [5] was 0.0969 nM.

B3: A048-H4L1 (antibody, V domains shown)
VH: EVQLLESGGGLVQPGGSLRLSCAASGFSFSSSYYMCWVRQAPGKGLEWIACIYTSSGSAYYADSVKGRFTISRTSSTTVTLQMNSLRAEDTAVYYCVRNAVGSSYYLYLWGQGTLVTVSS
VL: DIQMTQSPSTLSASVGDRVTITCQASQSVAGNNYLSWYQQKPGKAPKLLIYSVSTLASGVPSRFSGSGSGTEFTLTISSLQPDDFATYYCQGYYNDGIWAFGQGTKVEIK
B3 was tested, and the EC50 [1] was 2.77 nM, the Kd [2] was 6.72 nM and the koff [2] was 0.000478 s⁻¹. For the same binder, the kon [2] was 71000 M⁻¹ s⁻¹, the EC50 [3] was 0.88 nM and the EC50 [4] was 1.34 nM. For the same binder, the EC50 [5] was 0.0953 nM.

B4: A048-H1L3 (antibody, V domains shown)
VH: EVQLLESGGGLVQPGGSLRLSCAASGFSFSSSYYMCWVRQAPGKGLEWIACIYTSSGSAYYANWAKGRFTISRDNSKNTLYLQMNSLRAEDTAVYYCVRNAVGSSYYLYLWGQGTLVTVSS
VL: DIQMTQSPSSLSASVGDRVTITCQASQSVAGNNYLSWYQQKPGKVPKLLIYSVSTLASGVPSRFSGSGSGTDFTLTISSLQPEDVATYYCQGYYNDGIWAFGQGTKVEIK
B4 was tested, and the EC50 [1] was 3.48 nM, the Kd [2] was 8.76 nM and the koff [2] was 0.000846 s⁻¹. It also gave a kon [2] of 96400 M⁻¹ s⁻¹, an EC50 [3] of 1.2 nM and an EC50 [4] of 1.88 nM. The EC50 [5] was 0.0802 nM.

B5: A048-H4L2 (antibody, V domains shown)
VH: EVQLLESGGGLVQPGGSLRLSCAASGFSFSSSYYMCWVRQAPGKGLEWIACIYTSSGSAYYADSVKGRFTISRTSSTTVTLQMNSLRAEDTAVYYCVRNAVGSSYYLYLWGQGTLVTVSS
VL: AQVLTQSPSTLSASVGDRVTITCQASQSVAGNNYLSWYQQKPGKAPKLLIYSVSTLASGVPSRFSGSGSGTEFTLTISSLQPDDFATYYCQGYYNDGIWAFGQGTKVEIK
For B5, the EC50 [1] was 6.59 nM, the Kd [2] was 7.69 nM and the koff [2] was 0.000481 s⁻¹. The kon [2] was 62400 M⁻¹ s⁻¹, the EC50 [3] was 0.71 nM and the EC50 [4] was 1.78 nM. The EC50 [5] was 0.107 nM.

B6: A048-H4L3 (antibody, V domains shown)
VH: EVQLLESGGGLVQPGGSLRLSCAASGFSFSSSYYMCWVRQAPGKGLEWIACIYTSSGSAYYADSVKGRFTISRTSSTTVTLQMNSLRAEDTAVYYCVRNAVGSSYYLYLWGQGTLVTVSS
VL: DIQMTQSPSSLSASVGDRVTITCQASQSVAGNNYLSWYQQKPGKVPKLLIYSVSTLASGVPSRFSGSGSGTDFTLTISSLQPEDVATYYCQGYYNDGIWAFGQGTKVEIK
In the case of B6, the EC50 [1] is reported as 3.5 nM, the Kd [2] is reported as 6.31 nM and the koff [2] is reported as 0.000476 s⁻¹. For the same binder, the kon [2] was 75200 M⁻¹ s⁻¹, the EC50 [3] was 1.37 nM and the EC50 [4] was 1.12 nM. For the same binder, the EC50 [5] was 0.114 nM.

B7: A048-H1L4 (antibody, V domains shown)
VH: EVQLLESGGGLVQPGGSLRLSCAASGFSFSSSYYMCWVRQAPGKGLEWIACIYTSSGSAYYANWAKGRFTISRDNSKNTLYLQMNSLRAEDTAVYYCVRNAVGSSYYLYLWGQGTLVTVSS
VL: AQVLTQSPSSLSASVGDRVTITCQASQSVAGNNYLSWYQQKPGKVPKLLIYSVSTLASGVPSRFSGSGSGTDFTLTISSLQPEDVATYYCQGYYNDGIWAFGQGTKVEIK
Work on B7 yielded an EC50 [1] of 0.68 nM, a Kd [2] of 12 nM and a koff [2] of 0.000953 s⁻¹. It also gave a kon [2] of 79400 M⁻¹ s⁻¹, an EC50 [3] of 0.44 nM and an EC50 [4] of 0.98 nM. It also gave an EC50 [5] of 0.102 nM.
